In PMC12357932 (Nature Communications, 2025):

B1: C-terminal domain of F-BclA (F-BclA-CTD; BTK_RS34675 residues 721-863) (domain or fragment)
chain: MHHHHHHSVGLTNYLYVFDTTNQSIAVGSSVTFNTNGPITGTALSHITGTGNIIINTLGTYVAEFQLQASRENQFSLELNGTPIPGGRFGTGSPHSINQGTAAFTVTVVPSTLTLINNTSSAGTITLSNSDGGSLTNVSASISIFQVG

Columns and labels:
[1] = biological target: ExsF with the first 23 residues replaced by an N-terminal 6xHis tag (B. paranthracis); test: crystal structure
crystal structure = biological target: the molecule itself; test: crystal structure

| Molecule | stoichiometry N [1] | stoichiometry N (crystal structure) |
| --- | --- | --- |
| ExsF with the first 23 residues replaced by an N-terminal 6xHis tag (domain or fragment) | 3 | – |
| B1 | – | 3 |
